Patent US20200071687

T1: RNase A, P61823
T1 chain: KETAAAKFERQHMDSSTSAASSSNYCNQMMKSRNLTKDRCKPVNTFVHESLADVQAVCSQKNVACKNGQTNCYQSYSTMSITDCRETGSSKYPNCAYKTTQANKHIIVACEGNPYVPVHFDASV


Tests used:
RNase A, P61823 = target: T1, RNase A, P61823

Protein | degradation of RNaseA, 1 hour at 37° C. (SDS-PAGE, Coomassie) (RNase A, P61823) | digestion of the substrate protein in the presence of detergents (SDS-PAGE, Coomassie) (RNase A, P61823) | digestion of the substrate protein in the presence of detergents (SDS-PAGE, Coomassie) (catalase) | digestion of Ase I, 1 hour at 37° C. (SDS-PAGE, Coomassie) (restriction enzyme Ase I)
Subtilisin Carlsberg variant B24 (protein) AQTVPYGIPLIKADKVQAQGFKNVKVAVLDTGIQASHPDLNVVGGASFVAGEAYNTDGNGHGTHVAGTVAALGNTTGVLGVAPSVSLYAVKVLNSSGSGSYSGIVSGIEWATTNGMDVINMSLGGASGSTAMKQAVDNAYAKGVVVVAAGNSGSSGNTNTIGYPAKYDSVIAVGAVDSNSNRASFSSVGAELEVMAPGAGYSTYPTNTYATLNGTSMASPHVAGAAALIMSKHPNLSASQVRNRLSSTATYLGSSFYYGKGLINVEAAAPHHHHH | both the subtilisin B24 variant and proteinase K can degrade RNaseA | can digest catalase (FIG. 11A) and RNAase (FIG. 11B) up to at least a 2.0% SDS concentration; catalase (FIG. 11C) and RNAase (FIG. 11D) up to at least a 2.0% Triton X-100 concentration; and RNAase (FIG. 11E) up to at least a 2% CTAB concentration | can digest catalase (FIG. 11A) and RNAase (FIG. 11B) up to at least a 2.0% SDS concentration; catalase (FIG. 11C) and RNAase (FIG. 11D) up to at least a 2.0% Triton X-100 concentration | subtilisin B24 variant can digest Ase I in one hour at 37 °C
proteinase K (protein) AAQTNAPWGLARISSTSPGTSTYYYDESAGQGSCVYVIDTGIEASHPEFEGRAQMVKTYYYSSRDGNGHGTHCAGTVGSRTYGVAKKTQLFGVKVLDDNGSGQYSTIIAGMDFVASDKNNRNCPKGVVASLSLGGGYSSSVNSAAARLQSSGVMVAVAAGNNNADARNYSPASEPSVCTVGASDRYDRRSSFSNYGSVLDIFGPGTSILSTWIGGSTRSISGTSMATPHVAGLAAYLMTLGKTTAASACRYIADTANKGDLSNIPFGTVNLLAYNNYQA | both the subtilisin B24 variant and proteinase K can degrade RNaseA | – | – | while Proteinase K cannot
